Reference: patent US20120207760A1

B1: TCN-504 (3251_K17) (antibody, V domains shown)
VH: QVQLQESGPGLVKPSETLSLTCAVSGVSISNIDFYWGWIRQPPGKGLEWIGNIYYTGITFYNPSLSSRVAISIDTSKNQFSLTLTSVTAADTAMYYCARHYGDSEAINDAFDIWGQGTMLTVSS
VL: EIVMTQSPATLSVSPGERATLSCRASQSVGNSLAWYQQRPGQAPRLLIYGASTRATGIPPRFSGSGSGTEFTLTISSLQTEDFAVYYCQQYINWRPLSFGGGTKVEIK
B2: TCN-523 (5248_A17) (antibody, V domains shown)
VH: QVQLVQSGAEVKKPGSSVKVSCKASGGSFSNYAFSWVRQAPGQGLEWMGGTIPLLGTTNYAQKFQGRVTISADQFTSTAYMELGSLRSEDTAVYYCTRRKMTTAFDSWGQGTLVTVSS
VL: QPVLTQPPSASASLGASVTLTCTLSSAYSNYKVDWYQQRPGKGPRFVMRVGTGGIVGSKGDGIPDRFSVLGSGLNRYLTIKNIQEEDESDYHCGADHGSGSNFVSPYVFGGGTKLTVL

Columns and labels:
Conditions in all cases: remark: other sources report otherwise
[1] = biological target: T1, recombinant homotrimeric HA, A/Wisconsin/67/05 H3N2 (Influenza A virus A/Wisconsin/67/05 (H3N2)); assay: trimeric HA microarray, transfection set 5
[2] = biological target: T2, recombinant homotrimeric HA, A/Anhui/1/05 H5N1 (Influenza A virus A/Anhui/1/05 (H5N1)); assay: trimeric HA microarray, transfection set 3
[3] = biological target: T1, recombinant homotrimeric HA, …; assay: trimeric HA microarray, transfection set 4
[4] = biological target: T1, recombinant homotrimeric HA, …; assay: trimeric HA microarray, transfection set 1
[5] = biological target: recombinant homotrimeric HA, A/Netherlands/219/03 H7N7 (Influenza A virus A/Netherlands/219/03 (H7N7)); assay: trimeric HA microarray, transfection set 1
[6] = biological target: recombinant homotrimeric HA, A/duck/Yangzhou/02/05 H8N4 (Influenza A virus A/duck/Yangzhou/02/2005 (H8N4)); assay: trimeric HA microarray, transfection set 1
[7] = biological target: T2, recombinant homotrimeric HA, …; assay: trimeric HA microarray, transfection set 1
[8] = biological target: recombinant soluble homotrimeric HA of A/Hong Kong/2108/03 - H9N2 (Influenza A virus A/HK/2108/2003 (H9N2)); assay: micro-array; captured IgG, V5-tagged trimeric HA
[9] = biological target: T3, recombinant homotrimeric HA, A/Hong Kong/1073/99 H9N2 (Influenza A virus A/Hong Kong/1073/99 (H9N2)); assay: trimeric HA microarray, transfection set 3
[10] = biological target: T4, recombinant homotrimeric HA, A/northern shoveler/California/HKWF115/07 (Influenza A virus A/northern shoveler/California/HKWF115/2007 (H6N1)); assay: trimeric HA microarray, transfection set 3
[11] = biological target: T3, recombinant homotrimeric HA, A/Hong …; assay: trimeric HA microarray, transfection set 1
[12] = biological target: T4, recombinant homotrimeric HA, A/northern …; assay: trimeric HA microarray, transfection set 1

| Binder | Trimeric HA Binding RLU [1] [RLU] | Trimeric HA Binding RLU [2] [RLU] | Trimeric HA Binding RLU [3] [RLU] | Trimeric HA Binding RLU [4] [RLU] | Trimeric HA Binding RLU [5] [RLU] | Trimeric HA Binding RLU [6] [RLU] | Trimeric HA Binding RLU [7] [RLU] | Trimeric HA Binding: RLU [8] [RLU] | Trimeric HA Binding RLU [9] [RLU] | Trimeric HA Binding RLU [10] [RLU] | Trimeric HA Binding RLU [11] [RLU] | Trimeric HA Binding RLU [12] [RLU] |
| --- | --- | --- | --- | --- | --- | --- | --- | --- | --- | --- | --- | --- |
| B1 | 38100 | 30000 | 20600 | 14300 | 23800 | 28900 | 29000 | 7 | – | – | – | – |
| B2 | – | – | – | – | – | – | – | – | 24200 | 29400 | 21700 | 9050 |
